Experimental findings from the RNAGym collection of RNA variant scans (doi:10.7554/elife.80360) are described below.

First the molecules themselves.
B1: HDV Ribozyme (parent)
chain: GGCCGGCAUGGUCCCAGCCUCCUCGCUGGCGCCGGCUGGGCAACAUUCCGAGGGGACCGUCCCCUCGGUAAUGGCGAAUGGGACCCA

Variants of B1 are the subject of the data set. The experiment in a line: self-cleavage, relative activity (ratio to wild type); higher = more cleavage; co-transcriptional.
In the case of G6C G52C, the self-cleavage is 0.237.

On to C7U C64A, for which the self-cleavage stood at 0.923.

In the case of A8C A16G, the self-cleavage was 0.831.

Regarding A8G C44G, the self-cleavage was 0.499.

As to A8G C44A, the self-cleavage stood at 0.665.

For the variant A8G C44U, the self-cleavage is 0.475.

G6U G52C: the self-cleavage is 0.554.

Regarding G6U G52U, the self-cleavage amounted to 0.397.

For C7U U37G, the self-cleavage worked out at 0.19.

On to G6U C48U, for which the self-cleavage was found to be 0.696.

Regarding G6U C48A, the self-cleavage came to 0.542.

For C7A G55A, the self-cleavage was 0.627.

As to A8C G25U, the self-cleavage turned out to be 0.138.

Regarding A8C G25C, the self-cleavage turned out to be 0.

Regarding A8C G25A, the self-cleavage is 0.172.

With C7U C84G, the self-cleavage worked out at 0.527.

As to C7U C84A, the self-cleavage came out at 1.14.

Consider C7U A78C, for which the self-cleavage is 0.0923.

Take A8C U47G: the self-cleavage is 0.795.

With C7G G53U, the self-cleavage came out at 0.26.

Consider C7G G53A, for which the self-cleavage came to 0.26.

As for G6U C75U, the self-cleavage was 0.113.

For G6U C75G, the self-cleavage amounted to 0.145.

In the case of C7G C75G, the self-cleavage was 0.145.

In the case of G6U C41U, the self-cleavage amounted to 0.259.

With G6U C41G, the self-cleavage amounted to 0.237.

G6U C41A: the self-cleavage was 0.269.

As for C7A G52A, the self-cleavage was 0.629.

As to A8C C26G, the self-cleavage stood at 1.11.

On to C7A C18A, for which the self-cleavage was 0.0852.

As to G6C G55A, the self-cleavage stood at 0.16.

For the variant C7U G81A, the self-cleavage amounted to 0.352.

As to C7U G81U, the self-cleavage was determined as 0.187.

On to G6U C63A, for which the self-cleavage turned out to be 0.594.

Regarding A8G C62A, the self-cleavage was 1.03.

Consider G6C G59U, for which the self-cleavage was 0.314.

For C7G C44A, the self-cleavage was 0.

Consider C7U G52A, for which the self-cleavage worked out at 0.68.

In the case of A8C C24G, the self-cleavage came out at 0.

As for A8C A45G, the self-cleavage stood at 0.615.

In the case of C7A C26A, the self-cleavage worked out at 0.615.

For C7G C48U, the self-cleavage is 0.262.

As to A8G G35C, the self-cleavage turned out to be 0.0426.

As to A8G G35A, the self-cleavage was found to be 0.332.

As to A8C C41A, the self-cleavage is 0.798.

For A8C C41G, the self-cleavage was 0.457.

With G6U U60C, the self-cleavage came out at 0.525.

Regarding G6U G82A, the self-cleavage is 0.0875.

With G6C G29U, the self-cleavage is 0.111.

As for C7G G73U, the self-cleavage was determined as 0.0831.

In the case of C7G G55A, the self-cleavage is 0.302.

Consider A8G G73C, for which the self-cleavage was 0.437.

For the variant C7G G50C, the self-cleavage turned out to be 0.138.

For A8G G10C, the self-cleavage turned out to be 0.665.

For the variant C7G U72C, the self-cleavage turned out to be 0.

Take C7A C49U: the self-cleavage was found to be 0.582.

Consider G6C U12A, for which the self-cleavage is 0.

In the case of G6U C57A, the self-cleavage came out at 0.623.

A8C A51U: the self-cleavage stood at 0.831.

A8C G52C: the self-cleavage is 0.957.

As for G6C U79G, the self-cleavage came to 0.

Turning to C7A U79G, the self-cleavage was determined as 0.192.

In the case of C7A U79A, the self-cleavage was found to be 0.249.

In the case of G6U U72G, the self-cleavage worked out at 0.133.

On to G6U U72A, for which the self-cleavage is 0.0665.

Consider A8C C15A, for which the self-cleavage is 0.199.

Take A8C G31C: the self-cleavage worked out at 0.119.

On to A8C G31U, for which the self-cleavage turned out to be 0.214.

As for C7U U65A, the self-cleavage is 0.475.

Take G6U G54A: the self-cleavage came to 0.522.

With G6U A45U, the self-cleavage came to 0.475.

Consider G6U A45G, for which the self-cleavage amounted to 0.403.

Take G6U A45C: the self-cleavage stood at 0.0462.

With A8G C19U, the self-cleavage was 0.104.

For the variant G6C U27G, the self-cleavage came out at 0.0791.

As to G6C U27A, the self-cleavage was determined as 0.332.

In the case of A8C C61G, the self-cleavage turned out to be 0.772.

As for C7A U9A, the self-cleavage turned out to be 0.431.

For the variant A8C C84G, the self-cleavage stood at 0.208.

For A8G A51G, the self-cleavage is 1.16.

As to G6U A56G, the self-cleavage amounted to 0.623.

As for A8C C66A, the self-cleavage was found to be 0.831.

Regarding C7U C32U, the self-cleavage is 0.394.

Turning to C7U C32G, the self-cleavage amounted to 0.0361.

Consider C7U C32A, for which the self-cleavage was 0.0707.

Take A8G C18U: the self-cleavage worked out at 0.297.

For A8G C18A, the self-cleavage was determined as 0.0875.

For C7A C66U, the self-cleavage was determined as 0.587.

Consider C7A U27C, for which the self-cleavage is 0.287.

As for C7A A42C, the self-cleavage worked out at 0.19.

In the case of C7A G11U, the self-cleavage is 0.095.

Consider C7U G50A, for which the self-cleavage was 0.786.

Consider A8G A78G, for which the self-cleavage was 0.128.

Turning to G6U C64G, the self-cleavage is 0.388.

C7U A8G: the self-cleavage worked out at 0.582.

C7U A8U: the self-cleavage was 0.831.

Consider G6C G35A, for which the self-cleavage stood at 0.0755.

Turning to C7G G82U, the self-cleavage amounted to 0.

Regarding C7A G25C, the self-cleavage amounted to 0.

Consider C7A C48U, for which the self-cleavage was 0.542.

Take A8G C14G: the self-cleavage is 0.

With G6U A42U, the self-cleavage came out at 0.095.

Take G6U C86A: the self-cleavage came out at 0.574.

Consider G6C G31A, for which the self-cleavage was determined as 0.277.

In the case of G6C G31C, the self-cleavage stood at 0.399.

C7A G28A: the self-cleavage is 0.123.

Regarding G6U A8C, the self-cleavage was 0.447.

On to C7U U12C, for which the self-cleavage came to 0.237.

As to C7U U12A, the self-cleavage amounted to 0.35.

Regarding C7U C18A, the self-cleavage came out at 0.

Regarding A8C U23A, the self-cleavage came out at 0.615.

As for A8G A70C, the self-cleavage came out at 0.519.

As to A8G C41G, the self-cleavage stood at 0.578.

For the variant C7U C41G, the self-cleavage was determined as 0.225.

Regarding A8C C86G, the self-cleavage worked out at 1.02.

For the variant G6U G68C, the self-cleavage amounted to 0.383.

As to A8G C32G, the self-cleavage is 0.0573.

On to A8G C32U, for which the self-cleavage is 0.609.

Turning to C7G U12G, the self-cleavage is 0.

Consider A8G G55A, for which the self-cleavage came to 0.655.

In the case of G6U A16G, the self-cleavage worked out at 0.388.

With G6U A16C, the self-cleavage worked out at 0.

A8C A77U: the self-cleavage was 0.356.

In the case of A8C A77C, the self-cleavage came to 0.317.

A8C C58U: the self-cleavage turned out to be 0.831.

As for G6U U37C, the self-cleavage turned out to be 0.943.

As to C7A C15G, the self-cleavage worked out at 0.123.

On to G6U G80U, for which the self-cleavage worked out at 0.0838.

On to C7G G67C, for which the self-cleavage was 0.0573.

C7U G10C: the self-cleavage was determined as 0.266.

Turning to C7U G10A, the self-cleavage amounted to 0.425.

As for A8C G34A, the self-cleavage is 0.0475.

Regarding A8C C49A, the self-cleavage was determined as 0.9.

Take G6U G25U: the self-cleavage came out at 0.117.

As for C7G C30A, the self-cleavage turned out to be 0.0361.

With G6C U20A, the self-cleavage came out at 0.

With A8C A83G, the self-cleavage was 0.646.

For A8G G28U, the self-cleavage is 0.185.

Take G6C G17U: the self-cleavage came out at 0.237.

On to C7U C61G, for which the self-cleavage came to 0.743.

As to C7G C58U, the self-cleavage amounted to 0.492.

As for C7A G29A, the self-cleavage was 0.0804.

For the variant A8C C63A, the self-cleavage came to 0.852.

Take A8C C63G: the self-cleavage amounted to 0.554.

For the variant A8G C57A, the self-cleavage is 0.779.

With C7A C14A, the self-cleavage amounted to 0.123.

On to C7G G10C, for which the self-cleavage worked out at 0.222.

For G6C G53C, the self-cleavage was 0.32.

With C7G G11C, the self-cleavage worked out at 0.

On to C7U U69C, for which the self-cleavage is 0.853.

On to A8C G11U, for which the self-cleavage stood at 0.17.

As to G6U A51U, the self-cleavage is 0.739.

As to G6U C85A, the self-cleavage was found to be 0.394.

G6U C36A: the self-cleavage was 0.133.

Turning to G6U C61G, the self-cleavage stood at 0.707.

For G6C G74C, the self-cleavage came to 0.

For the variant G6C G74U, the self-cleavage came to 0.196.

Turning to G6U C30U, the self-cleavage was found to be 0.131.

Turning to G6U C30G, the self-cleavage was determined as 0.0326.

Regarding A8G C36A, the self-cleavage is 0.0386.

Regarding A8G C22U, the self-cleavage is 0.361.

For A8G C22G, the self-cleavage came to 0.0489.

Consider C7U C13G, for which the self-cleavage came out at 0.

For the variant C7U C13U, the self-cleavage is 0.332.

For the variant C7A G81U, the self-cleavage was 0.116.

As to A8C C75U, the self-cleavage stood at 0.128.

On to C7A C85G, for which the self-cleavage is 0.688.
